Results as given in paper PMC3251568.

Target: c-Abl (UniProt P00519)
Test: anti-c-Abl IP, FLAG-PCNA western
Conditions: reference: wild-type FLAG-PCNA; sites Y211

binding against the reference: weaker
Substance: PCNA (proliferating cell nuclear antigen) (from UniProt P12004) Y211F FLAG-PCNA
